Measurements as given in patent US20210317213A1 (AMBRX, published 2021).

What was measured:
[1] = target: T1, human CD3 (human, UniProt P07766 23-207); assay: cell binding, human PBMC
T1 construct: whole, on cells; also called CD3 on human T-cells

[2] = target: Folate receptor-alpha (FOLR1) (human) (UniProt P15328); assay: summary table; cell binding through the folate moiety
[3] = target: Folate receptor-alpha (FOLR1) (human) (UniProt P15328); assay: summary table; FRα affinity over CD3 affinity
[4] = target: Folate receptor-alpha (FOLR1) (human) (UniProt P15328); assay: cell binding, SKOV-3 cells with 50 nM SFA; through the folate moiety
[5] = target: T1, human CD3; assay: summary table; cell binding EC50, human PBMC
[6] = target: T2, cyno CD3 (cyno (cynomolgus monkey), UniProt Q95LI5 22-198); assay: cell binding, cynomolgus T-cells
T2 construct: whole, on cells; also called CD3 on Cynomolgus T-cells

[7] = target: T2, cyno CD3; assay: cell binding, activated cyno PBMC
[8] = target: Folate receptor-alpha (FOLR1) (human) (UniProt P15328); assay: cell binding, FOLRα-expressing KB cells; through the folate moiety
[9] = target: T1, human CD3; assay: cell binding, human T-cells; design: Bmax: unit not given here
[10] = target: T1, human CD3; assay: cell binding, activated human PBMC
[11] = target: T1, human CD3; assay: cell binding, human CD3, 50 nM SFA present
[12] = target: T2, cyno CD3; assay: cell binding, cyno CD3 (activated cyno PBMC); cyno CD3 (second number of the cell)
Method: (§1) Testing for CD3 binding with activated human and cyno PBMC: To distinguish between the humanized anti-CD3 antibodies generated, binding to human CD3 was tested using activated human PBMCs (n=2). The activation of PBMCs and subsequent fluorescence-based CD3 binding assays were followed as described previously (see for example, Angew Chem Int Ed Engl, 52(46):12101-12104, 2013). […] The binding of the remaining 6 humanized antibodies to both human and cyno CD3 using activated human and cyno PBMCs, respectively, was titrated. […] The six (6) humanized anti-CD3 antibodies were obtained as follows: Fab1, Fab2 and Fab3 wildtype were generated by combination of LC ((vL1.2+CL); (SEQ.ID. NO:7)) and HC ((vH1.2+CH1); (SEQ.ID. NO:1)), ((vH1.1+CH1); (SEQ.ID. NO:2)) and ((vH1.0+CH1); (SEQ.ID. NO:3)) respectively. Fab4, Fab 5 and Fab6 wildtype were generated by combination of LC ((vL1.1+CL); (SEQ.ID. NO:8)) and HC ((vH1.2+CH1); (SEQ.ID. NO:1)), ((vH1.1+CH1); (SEQ.ID. NO:2)) and ((vH1.0+CH1); (SEQ.ID. NO:3)) respectively.
(§2) Binding of Folate-conjugated Fabs to human and cyno CD3: Binding of E. coli produced and Folate-conjugated low-affinity variants of humanized anti-CD3 Fabs was performed as described in the above Examples.

[13] = target: T1, human CD3; assay: cell binding, human CD3 (activated human PBMC); human CD3 (first number of the cell)
Method: as §1, §2

[14] = target: T1, human CD3; assay: cell binding, activated human PBMC; E. coli protein
[15] = target: T2, cyno CD3; assay: cell binding, activated cyno PBMC; E. coli protein

T1 sequence (P07766 23-207): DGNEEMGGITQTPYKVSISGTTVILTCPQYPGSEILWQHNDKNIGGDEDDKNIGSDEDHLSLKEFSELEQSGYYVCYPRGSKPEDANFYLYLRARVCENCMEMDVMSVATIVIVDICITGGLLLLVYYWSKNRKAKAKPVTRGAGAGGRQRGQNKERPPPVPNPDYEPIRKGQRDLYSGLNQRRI
T2 sequence (Q95LI5 22-198): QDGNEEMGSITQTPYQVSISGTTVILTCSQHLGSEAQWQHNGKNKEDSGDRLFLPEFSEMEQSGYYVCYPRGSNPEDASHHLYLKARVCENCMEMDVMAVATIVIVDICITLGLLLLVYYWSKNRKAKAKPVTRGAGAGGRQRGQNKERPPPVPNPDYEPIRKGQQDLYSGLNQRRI
Folate receptor-alpha (FOLR1) (human), sequence (P15328 25-234): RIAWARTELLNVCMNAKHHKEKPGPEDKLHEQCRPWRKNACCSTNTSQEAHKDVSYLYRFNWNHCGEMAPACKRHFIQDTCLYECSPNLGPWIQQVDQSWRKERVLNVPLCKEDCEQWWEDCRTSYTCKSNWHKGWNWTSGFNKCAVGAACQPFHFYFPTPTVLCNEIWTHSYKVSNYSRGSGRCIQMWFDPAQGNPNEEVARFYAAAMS

B1: Fab1-HK129-LK172-BiFolate (Fab, V domains shown)
VH: EVQLVESGGGLVQPGGSLRLSCAASGFTFNTYAMNWVRQAPGKGLEWVARIRSKYNNYATYYADSVKDRFTISRDDSKNILYLQMNSLKTEDTAVYYCVRHGNFGNSYVSWFAYWGQGTLVTVSS
VL: QAVVTQEPSLTVSPGGTVTLTCRSSTGAVTTSNYANWVQQKPGQAPRGLIGGTNKRAPGTPARFSGSLLGGKAALTLSGAQPEDEAEYYCALWYSNLWVFGGGTKLTVLG
modifications: pAF at LK172 (Kabat) conjugated to folate (oxime); pAF at HK129 (Kabat) conjugated to folate (oxime)
notes: From E. coli; carries two folates
[1]
  EC50: 2.85 nM
  Fold increase binding (vs Fab1-HK129-Folate): 0.86 fold
[2]
  FRα binding affinity: 10 nM
[3]
  Affinity ratio (FRα:CD3): 3.5
[4]
  EC50: 10 nM
  Fold increase binding (vs Fab1-HK129-Folate): 4.4 fold
[5]
  CD3 binding affinity: 2.85 nM

B2: Fab1-HK129-5KPEG-Folate (Fab, V domains shown)
VH: EVQLVESGGGLVQPGGSLRLSCAASGFTFNTYAMNWVRQAPGKGLEWVARIRSKYNNYATYYADSVKDRFTISRDDSKNILYLQMNSLKTEDTAVYYCVRHGNFGNSYVSWFAYWGQGTLVTVSS
VL: QAVVTQEPSLTVSPGGTVTLTCRSSTGAVTTSNYANWVQQKPGQAPRGLIGGTNKRAPGTPARFSGSLLGGKAALTLSGAQPEDEAEYYCALWYSNLWVFGGGTKLTVLG
modifications: pAF at HK129 (Kabat) conjugated to a bifunctional linker carrying folate and a linear 5K PEG (oxime)
notes: From E. coli; also called Fab1-5KPEG-Folate
[6]
  Bmax: 19900
  Kd: 3.31 nM
[7]
  EC50: 2.46 nM
  Fold reduction in binding (vs Fab1-HK129-Folate): 1.7 fold
[8]
  Bmax: 134000
  Kd: 3.69 nM
[9]
  Bmax: 23400
  Kd: 2.34 nM
[2]
  FRα binding affinity: 129 nM
[3]
  Affinity ratio (FRα:CD3): 26
[5]
  CD3 binding affinity: 5 nM
[10]
  EC50: 5 nM
  Fold reduction in binding (vs Fab1-HK129-Folate): 1.9 fold
[11]
  EC50: 5.27 nM

B3: Fab1-HK129-20KPEG-Folate (Fab, V domains shown)
VH: EVQLVESGGGLVQPGGSLRLSCAASGFTFNTYAMNWVRQAPGKGLEWVARIRSKYNNYATYYADSVKDRFTISRDDSKNILYLQMNSLKTEDTAVYYCVRHGNFGNSYVSWFAYWGQGTLVTVSS
VL: QAVVTQEPSLTVSPGGTVTLTCRSSTGAVTTSNYANWVQQKPGQAPRGLIGGTNKRAPGTPARFSGSLLGGKAALTLSGAQPEDEAEYYCALWYSNLWVFGGGTKLTVLG
modifications: pAF at HK129 (Kabat) conjugated to a bifunctional linker carrying folate and a linear 20K PEG (oxime)
notes: From E. coli
[7]
  EC50: 11.8 nM
  Fold reduction in binding (vs Fab1-HK129-Folate): 8.4 fold
[2]
  FRα binding affinity: 310 nM
[3]
  Affinity ratio (FRα:CD3): 26
[5]
  CD3 binding affinity: 12 nM
[10]
  EC50: 12 nM
  Fold reduction in binding (vs Fab1-HK129-Folate): 4.3 fold

B4: Fab8-HK129-Folate (Fab, V domains shown)
VH: EVQLVESGGGLVQPGGSLRLSCAASGFTFNTYAMNWVRQAPGKGLEWVGRIRSKYNNYATYYADSVKDRFTISRDDSKNILYLQMNSLKTEDTAVYYCVRHGNFGNSYVSWFAYWGQGTLVTVSS
VL: QAVVTQEPSLTVSPGGTVTLTCRSSTGAVTTSNYANWFQQKPGQAPRGLIGGTNKRAPGVPARFSGSLLGGKAALTLSGAQPEDEAEYYCALWYSNLWVFGGGTKLTVLG
modifications: pAF at HK129 (Kabat) conjugated to folate (oxime)
notes: also called Fab8 (E. coli, folate-conjugated)
[12]
  EC50: 130 nM
[13]
  EC50: 78.3 nM

B5: Fab1-HA114-Folate (Fab, V domains shown)
VH: EVQLVESGGGLVQPGGSLRLSCAASGFTFNTYAMNWVRQAPGKGLEWVARIRSKYNNYATYYADSVKDRFTISRDDSKNILYLQMNSLKTEDTAVYYCVRHGNFGNSYVSWFAYWGQGTLVTVSS
VL: QAVVTQEPSLTVSPGGTVTLTCRSSTGAVTTSNYANWVQQKPGQAPRGLIGGTNKRAPGTPARFSGSLLGGKAALTLSGAQPEDEAEYYCALWYSNLWVFGGGTKLTVLG
modifications: pAF at HA114 (Kabat) conjugated to folate (oxime)
notes: From E. coli; Fab-folate conjugate
[14]
  EC50: 1.27 nM
[15]
  EC50: 1.37 nM

B6: Fab1-HA114-pAF1 (Fab, V domains shown)
VH: EVQLVESGGGLVQPGGSLRLSCAASGFTFNTYAMNWVRQAPGKGLEWVARIRSKYNNYATYYADSVKDRFTISRDDSKNILYLQMNSLKTEDTAVYYCVRHGNFGNSYVSWFAYWGQGTLVTVSS
VL: QAVVTQEPSLTVSPGGTVTLTCRSSTGAVTTSNYANWVQQKPGQAPRGLIGGTNKRAPGTPARFSGSLLGGKAALTLSGAQPEDEAEYYCALWYSNLWVFGGGTKLTVLG
modifications: para-acetyl-phenylalanine (pAF) at HA114 (Kabat)
notes: From E. coli; also called Fab1 HA114pAF, unconjugated
[14]
  EC50: 1.35 nM
[15]
  EC50: 1.33 nM

B7: Fab1-HK129-LL157-pAF (Fab, V domains shown)
VH: EVQLVESGGGLVQPGGSLRLSCAASGFTFNTYAMNWVRQAPGKGLEWVARIRSKYNNYATYYADSVKDRFTISRDDSKNILYLQMNSLKTEDTAVYYCVRHGNFGNSYVSWFAYWGQGTLVTVSS
VL: QAVVTQEPSLTVSPGGTVTLTCRSSTGAVTTSNYANWVQQKPGQAPRGLIGGTNKRAPGTPARFSGSLLGGKAALTLSGAQPEDEAEYYCALWYSNLWVFGGGTKLTVLG
modifications: pAF at LL157 (Kabat); pAF at HK129 (Kabat)
notes: From E. coli; double pAF variant, unconjugated; also called Fab1-HK129pAF-LL157pAF
[6]
  Bmax: 23400
  Kd: 0.955 nM
[9]
  Bmax: 27900
  Kd: 0.604 nM

B8: Fab1-HK129-pAF (Fab, V domains shown)
VH: EVQLVESGGGLVQPGGSLRLSCAASGFTFNTYAMNWVRQAPGKGLEWVARIRSKYNNYATYYADSVKDRFTISRDDSKNILYLQMNSLKTEDTAVYYCVRHGNFGNSYVSWFAYWGQGTLVTVSS
VL: QAVVTQEPSLTVSPGGTVTLTCRSSTGAVTTSNYANWVQQKPGQAPRGLIGGTNKRAPGTPARFSGSLLGGKAALTLSGAQPEDEAEYYCALWYSNLWVFGGGTKLTVLG
modifications: para-acetyl-phenylalanine (pAF) at HK129 (Kabat)
notes: From E. coli; carries no folate and no PEG; also called Fab1-HK129-pAF1; anti-CD3 Fab1-HK129-pAF control
[14]
  EC50: 1.14 nM
[15]
  EC50: 1.15 nM
[6]
  Bmax: 26600
  Kd: 2.67 nM
[9]
  Bmax: 32000
  Kd: 1.59 nM
[11]
  EC50: 1.92 nM

B9: Fab1-HS115-Folate (Fab, V domains shown)
VH: EVQLVESGGGLVQPGGSLRLSCAASGFTFNTYAMNWVRQAPGKGLEWVARIRSKYNNYATYYADSVKDRFTISRDDSKNILYLQMNSLKTEDTAVYYCVRHGNFGNSYVSWFAYWGQGTLVTVSS
VL: QAVVTQEPSLTVSPGGTVTLTCRSSTGAVTTSNYANWVQQKPGQAPRGLIGGTNKRAPGTPARFSGSLLGGKAALTLSGAQPEDEAEYYCALWYSNLWVFGGGTKLTVLG
modifications: pAF at HS115 (Kabat) conjugated to folate (oxime)
notes: as for B5
[14]
  EC50: 1.41 nM
[15]
  EC50: 1.37 nM

B10: Fab1-HS115-pAF1 (Fab, V domains shown)
VH: EVQLVESGGGLVQPGGSLRLSCAASGFTFNTYAMNWVRQAPGKGLEWVARIRSKYNNYATYYADSVKDRFTISRDDSKNILYLQMNSLKTEDTAVYYCVRHGNFGNSYVSWFAYWGQGTLVTVSS
VL: QAVVTQEPSLTVSPGGTVTLTCRSSTGAVTTSNYANWVQQKPGQAPRGLIGGTNKRAPGTPARFSGSLLGGKAALTLSGAQPEDEAEYYCALWYSNLWVFGGGTKLTVLG
modifications: para-acetyl-phenylalanine (pAF) at HS115 (Kabat)
notes: From E. coli; also called Fab1 HS115pAF, unconjugated
[14]
  EC50: 1.26 nM
[15]
  EC50: 1.76 nM

B11: Fab7-HK129-Folate (Fab, V domains shown)
VH: EVQLVESGGGLVQPGGSLRLSCAASGFTFNTYAMNWVRQAPGKGLEWVARIRSKYNNYATYYADSVKDRFTISRDDSKNILYLQMNSLKTEDTAVYYCARHGNFGNSYVSWFAYWGQGTLVTVSS
VL: QAVVTQEPSLTVSPGGTVTLTCRSSTGAVTTSNYANWVQQKPGQAPRGLIGGTNKRAPWVPARFSGSLLGGKAALTLSGAQPEDEAEYYCALWYSNLWVFGGGTKLTVLG
modifications: pAF at HK129 (Kabat) conjugated to folate (oxime)
notes: also called Fab7 (E. coli, folate-conjugated)
[12]
  EC50: 20.2 nM
[13]
  EC50: 23.4 nM

B12: Fab9-HK129-Folate (Fab, V domains shown)
VH: EVQLVESGGGLVQPGGSLRLSCAASGFTFNTYAMNWVRQAPGKGLEWVGRIRSKYNNYATYYADSVKDRFTISRDDSKNSLYLQMNSLKTEDTAVYYCVRHGNFGNSYVSWFAYWGQGTLVTVSS
VL: QAVVTQEPSLTVSPGGTVTLTCRSSTGAVTTSNYANWFQQKPGQAPRGLIGGTNKRAPGVPARFSGSLLGGKAALTLSGAQPEDEAEYYCALWYSNLWVFGGGTKLTVLG
modifications: pAF at HK129 (Kabat) conjugated to folate (oxime)
notes: also called Fab9 (E. coli, folate-conjugated)
[12]
  EC50: 93.1 nM
[13]
  EC50: 69.1 nM

B13: Fab10-HK129-Folate (Fab, V domains shown)
VH: EVQLVESGGGLVQPGGSLRLSCAASGFTFSTYAMNWVRQAPGKGLEWVARIRSKYNNYATYYADSVKDRFTISRDDSKNILYLQMNSLKTEDTAVYYCVRHGNFGNSYVSWFAYWGQGTLVTVSS
VL: QAVVTQEPSLTVSPGGTVTLTCRSSTGAVTTSNYANWFQQKPGQAPRGLIGGTNKRAPGVPARFSGSLLGGKAALTLSGAQPEDEAEYYCALWYSNLWVFGGGTKLTVLG
modifications: pAF at HK129 (Kabat) conjugated to folate (oxime)
notes: also called Fab10 (E. coli, folate-conjugated)
[12]
  EC50: 99.5 nM
[13]
  EC50: 83.6 nM
